In publication doi:10.1101/2020.10.25.354415 (bioRxiv, 2020):
Values belong to the binder of their own block, whether it stands above or below them.

B2: αT-catenin head region (aa1-659) (domain or fragment, M. musculus, UniProt Q65CL1 1-659, looked up)
chain: MSAETPITLNMDTQDLQIQTFTVEKLLEPLIIQVTTLVNCPQNPSNRKKGRSKRARVLLASVEEATWNLLDKGEMIAKEATVLKEELAAALQEVRKESKALKVSAERFTDDPCYLPKREAVVQAARALLAAVTRLLVLADMIDVMCLLQHVSSFQRTFESLKNVSNKSDLQRTYQKLGKELESLDYLAFKRQQDLKSPSQRDEIAGARATLKENSPLLHSICSACLEHSDVASLKASKDTVCEEIQNALDVISNASQGIQNAPAPPEPQAATLGSAFDELENLIVLNPLTVTEEDVRPSLEKRLEAIISGAALLADSSCTRDLHRERIIAECNAIRQALQDLLTEYMSNTGKTERSNTLNTAIVNMSKKTRDLRRQLRKAIIDHISDSFLDTTVPLLVLIEAAKNGRVKEIKDYAAIFHEHTGRLVEVANLACSMSTNEDGIKIVRIAANHLETLCPQIINAALALASRPKSQVVKNTMEMYKRTWEHYIHVLTEAVDDITSIDDFLAVSESHILEDVNKCIIALRDQDADNLDRAAGAIRGRAARVAHIVAGEMDSYEPGAYTEGVMRNVNFLTSTVIPEFVTQVNVALDALSKNSLTALDDNQFVDISKKIYDTIHDIRCSVMMIRTPEELEDVSDLEDDHEVRSHTSIQTEGKTDR

Legend:
[1] = target: T1, αT-catenin head•β-catenin complex (M. musculus, UniProt Q65CL1 1-659; Q02248 1-781); experiment: ITC
T1 sequence (looked up) 1: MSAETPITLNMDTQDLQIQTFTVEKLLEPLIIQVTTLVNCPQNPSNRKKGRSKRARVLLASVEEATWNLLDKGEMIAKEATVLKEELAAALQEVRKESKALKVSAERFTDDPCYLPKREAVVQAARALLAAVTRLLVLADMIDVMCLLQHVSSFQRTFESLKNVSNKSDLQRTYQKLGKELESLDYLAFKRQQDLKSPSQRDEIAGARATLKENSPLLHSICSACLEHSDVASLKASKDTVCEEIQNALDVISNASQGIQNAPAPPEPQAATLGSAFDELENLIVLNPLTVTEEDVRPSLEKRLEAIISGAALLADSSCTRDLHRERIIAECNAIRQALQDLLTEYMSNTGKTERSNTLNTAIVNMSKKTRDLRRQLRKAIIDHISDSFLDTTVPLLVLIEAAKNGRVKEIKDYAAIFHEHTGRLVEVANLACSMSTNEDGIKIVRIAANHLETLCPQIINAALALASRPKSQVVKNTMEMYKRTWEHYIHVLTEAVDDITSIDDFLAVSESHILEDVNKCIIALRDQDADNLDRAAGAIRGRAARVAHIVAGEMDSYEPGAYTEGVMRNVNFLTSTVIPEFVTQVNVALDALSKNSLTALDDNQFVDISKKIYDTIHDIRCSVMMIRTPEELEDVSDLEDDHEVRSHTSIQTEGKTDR
T1 sequence (looked up) 2: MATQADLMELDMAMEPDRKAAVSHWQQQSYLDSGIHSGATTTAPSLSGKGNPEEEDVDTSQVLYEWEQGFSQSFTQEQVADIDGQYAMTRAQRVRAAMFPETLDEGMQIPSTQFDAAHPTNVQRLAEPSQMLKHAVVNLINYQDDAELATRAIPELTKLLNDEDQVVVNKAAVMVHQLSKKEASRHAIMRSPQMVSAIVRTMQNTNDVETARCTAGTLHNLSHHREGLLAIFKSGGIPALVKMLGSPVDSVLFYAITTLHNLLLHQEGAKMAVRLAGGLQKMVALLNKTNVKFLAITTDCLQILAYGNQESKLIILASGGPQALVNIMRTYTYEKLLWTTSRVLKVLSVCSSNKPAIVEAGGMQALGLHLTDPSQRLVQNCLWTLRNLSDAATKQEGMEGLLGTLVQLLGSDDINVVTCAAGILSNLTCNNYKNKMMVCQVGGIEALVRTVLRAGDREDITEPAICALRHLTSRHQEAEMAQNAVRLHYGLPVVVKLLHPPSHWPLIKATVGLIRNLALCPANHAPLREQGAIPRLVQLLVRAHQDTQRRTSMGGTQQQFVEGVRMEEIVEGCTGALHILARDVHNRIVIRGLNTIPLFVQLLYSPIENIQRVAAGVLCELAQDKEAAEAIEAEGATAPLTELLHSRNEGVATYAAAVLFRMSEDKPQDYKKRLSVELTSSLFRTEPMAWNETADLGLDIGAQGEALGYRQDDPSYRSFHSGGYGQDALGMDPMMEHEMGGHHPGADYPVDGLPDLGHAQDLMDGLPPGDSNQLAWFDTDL

[2] = target: B2; experiment: ITC
[3] = target: T2, αT-catenin N2-M3 (aa147-626) (M. musculus, UniProt Q65CL1 147-626); experiment: ITC
T2 sequence (looked up): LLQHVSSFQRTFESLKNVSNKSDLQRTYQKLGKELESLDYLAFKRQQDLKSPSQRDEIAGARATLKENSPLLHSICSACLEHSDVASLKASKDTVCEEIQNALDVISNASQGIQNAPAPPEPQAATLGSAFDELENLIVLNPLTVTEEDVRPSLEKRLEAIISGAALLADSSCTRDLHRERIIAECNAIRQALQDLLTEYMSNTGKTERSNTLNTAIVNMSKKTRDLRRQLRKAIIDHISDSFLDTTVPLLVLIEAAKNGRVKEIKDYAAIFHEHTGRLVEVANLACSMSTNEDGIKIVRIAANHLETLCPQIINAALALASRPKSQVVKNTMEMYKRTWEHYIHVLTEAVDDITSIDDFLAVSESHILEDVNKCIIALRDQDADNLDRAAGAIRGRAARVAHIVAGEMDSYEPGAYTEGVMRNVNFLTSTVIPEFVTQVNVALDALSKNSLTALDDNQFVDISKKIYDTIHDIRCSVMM

[4] = target: T3, αT-catenin M1-M3 (aa260-626) (M. musculus, UniProt Q65CL1 260-626); experiment: ITC
T3 sequence (looked up): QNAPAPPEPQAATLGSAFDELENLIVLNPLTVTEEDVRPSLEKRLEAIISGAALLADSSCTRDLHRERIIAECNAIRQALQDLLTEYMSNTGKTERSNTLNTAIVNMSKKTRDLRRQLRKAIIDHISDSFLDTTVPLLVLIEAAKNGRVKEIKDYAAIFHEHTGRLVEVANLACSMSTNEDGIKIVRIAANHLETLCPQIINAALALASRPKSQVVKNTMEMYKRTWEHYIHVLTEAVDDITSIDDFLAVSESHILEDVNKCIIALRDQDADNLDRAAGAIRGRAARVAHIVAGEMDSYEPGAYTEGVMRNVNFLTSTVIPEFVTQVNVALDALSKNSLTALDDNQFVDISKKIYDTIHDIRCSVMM

[5] = target: T4, 2I27-αT-catenin M1-M3(aa259-667)-2I27 (UniProt Q65CL1); experiment: ITC
T4 sequence (Q9UI47 whole entry, species assumed, looked up): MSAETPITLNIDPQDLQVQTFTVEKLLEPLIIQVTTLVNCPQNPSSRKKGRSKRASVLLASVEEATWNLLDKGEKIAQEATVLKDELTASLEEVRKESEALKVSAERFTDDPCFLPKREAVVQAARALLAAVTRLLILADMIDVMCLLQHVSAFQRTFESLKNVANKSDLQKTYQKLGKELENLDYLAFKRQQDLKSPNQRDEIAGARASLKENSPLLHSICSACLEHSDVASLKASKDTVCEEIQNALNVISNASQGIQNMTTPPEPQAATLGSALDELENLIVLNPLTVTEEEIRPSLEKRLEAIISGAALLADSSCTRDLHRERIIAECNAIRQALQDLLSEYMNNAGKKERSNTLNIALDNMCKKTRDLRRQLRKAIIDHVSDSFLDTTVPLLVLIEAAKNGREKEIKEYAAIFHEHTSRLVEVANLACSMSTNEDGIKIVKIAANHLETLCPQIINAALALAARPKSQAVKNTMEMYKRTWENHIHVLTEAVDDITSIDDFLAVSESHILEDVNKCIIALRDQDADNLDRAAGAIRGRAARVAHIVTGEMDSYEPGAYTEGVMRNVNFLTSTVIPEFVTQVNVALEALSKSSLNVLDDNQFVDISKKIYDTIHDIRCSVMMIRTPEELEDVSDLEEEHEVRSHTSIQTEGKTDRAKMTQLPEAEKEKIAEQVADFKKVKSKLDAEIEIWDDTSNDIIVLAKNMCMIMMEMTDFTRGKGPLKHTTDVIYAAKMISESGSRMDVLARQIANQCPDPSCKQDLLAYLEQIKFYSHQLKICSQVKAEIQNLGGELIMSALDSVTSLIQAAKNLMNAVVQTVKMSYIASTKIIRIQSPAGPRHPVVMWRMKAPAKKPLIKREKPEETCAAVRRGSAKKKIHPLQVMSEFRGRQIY

[6] = target: T5, β-catenin•N-cadherin cytoplasmic tail complex (M. musculus | , UniProt Q02248 1-781; P15116 746-906); experiment: ITC
T5 sequence (looked up) 1: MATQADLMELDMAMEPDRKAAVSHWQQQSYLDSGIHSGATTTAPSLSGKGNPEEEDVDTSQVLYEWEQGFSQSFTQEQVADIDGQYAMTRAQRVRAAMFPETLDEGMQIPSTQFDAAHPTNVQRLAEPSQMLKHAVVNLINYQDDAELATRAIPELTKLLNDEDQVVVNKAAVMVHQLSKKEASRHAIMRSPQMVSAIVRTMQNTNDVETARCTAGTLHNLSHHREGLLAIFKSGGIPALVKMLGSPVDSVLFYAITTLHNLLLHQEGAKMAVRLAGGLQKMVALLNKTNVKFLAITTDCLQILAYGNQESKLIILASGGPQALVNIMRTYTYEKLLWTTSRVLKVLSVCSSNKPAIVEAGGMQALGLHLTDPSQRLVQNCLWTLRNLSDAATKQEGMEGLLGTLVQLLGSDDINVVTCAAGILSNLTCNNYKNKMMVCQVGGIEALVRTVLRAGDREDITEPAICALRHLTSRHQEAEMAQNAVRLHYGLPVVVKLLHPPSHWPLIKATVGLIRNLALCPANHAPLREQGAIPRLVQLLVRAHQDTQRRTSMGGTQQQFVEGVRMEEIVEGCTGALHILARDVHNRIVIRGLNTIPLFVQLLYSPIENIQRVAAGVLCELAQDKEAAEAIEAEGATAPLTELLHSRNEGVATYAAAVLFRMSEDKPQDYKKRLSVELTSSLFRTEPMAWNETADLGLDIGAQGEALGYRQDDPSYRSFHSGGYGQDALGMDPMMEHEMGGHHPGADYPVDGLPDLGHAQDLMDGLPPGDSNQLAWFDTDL
T5 sequence (looked up) 2: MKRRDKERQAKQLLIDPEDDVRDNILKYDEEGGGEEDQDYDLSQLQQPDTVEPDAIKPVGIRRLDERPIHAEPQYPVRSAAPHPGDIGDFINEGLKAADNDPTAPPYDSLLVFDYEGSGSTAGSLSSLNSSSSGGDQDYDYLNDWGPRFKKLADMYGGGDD

β-catenin = target: T6, β-catenin (M. musculus, UniProt Q02248 1-781); experiment: ITC
T6 sequence (looked up): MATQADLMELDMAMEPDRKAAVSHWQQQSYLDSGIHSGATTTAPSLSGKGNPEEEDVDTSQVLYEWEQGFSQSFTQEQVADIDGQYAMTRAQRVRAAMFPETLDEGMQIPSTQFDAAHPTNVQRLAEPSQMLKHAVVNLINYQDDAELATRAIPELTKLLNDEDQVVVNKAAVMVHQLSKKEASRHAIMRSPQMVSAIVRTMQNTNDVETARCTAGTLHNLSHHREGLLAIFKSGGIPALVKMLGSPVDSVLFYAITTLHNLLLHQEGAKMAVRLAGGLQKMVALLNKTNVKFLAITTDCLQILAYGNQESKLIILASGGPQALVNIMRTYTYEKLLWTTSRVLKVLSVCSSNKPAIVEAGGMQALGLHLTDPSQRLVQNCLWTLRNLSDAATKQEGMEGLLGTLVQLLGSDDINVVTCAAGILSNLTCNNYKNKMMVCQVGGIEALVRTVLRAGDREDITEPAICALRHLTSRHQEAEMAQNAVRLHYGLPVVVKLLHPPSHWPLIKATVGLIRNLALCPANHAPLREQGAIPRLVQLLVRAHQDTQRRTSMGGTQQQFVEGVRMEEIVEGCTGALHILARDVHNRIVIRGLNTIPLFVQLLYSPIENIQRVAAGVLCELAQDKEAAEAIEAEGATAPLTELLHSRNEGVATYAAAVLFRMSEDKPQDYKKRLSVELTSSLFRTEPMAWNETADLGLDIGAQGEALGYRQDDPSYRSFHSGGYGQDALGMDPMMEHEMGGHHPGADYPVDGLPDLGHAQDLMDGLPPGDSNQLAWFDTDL

SEC = target: the molecule itself; experiment: SEC

Binder: B2
Kd [6]: 5 to 6 nM
Kd (β-catenin): ~250 nM

B3: αT-catenin V94D N1-N2 (domain or fragment, M. musculus, UniProt Q65CL1 1-259, looked up)
chain: MSAETPITLNMDTQDLQIQTFTVEKLLEPLIIQVTTLVNCPQNPSNRKKGRSKRARVLLASVEEATWNLLDKGEMIAKEATVLKEELAAALQEDRKESKALKVSAERFTDDPCYLPKREAVVQAARALLAAVTRLLVLADMIDVMCLLQHVSSFQRTFESLKNVSNKSDLQRTYQKLGKELESLDYLAFKRQQDLKSPSQRDEIAGARATLKENSPLLHSICSACLEHSDVASLKASKDTVCEEIQNALDVISNASQGI
stoichiometry N (SEC): 2

Now from value to binder:

Kd [1]: ~3000 nM
Kd [2]: ~5000 nM
Kd [3]: 50 nM
Kd [4]: 50 nM
Kd [5]: 250 nM
B1: vinculin D1 (aa1-259) (domain or fragment, UniProt P12003 1-259, looked up)
chain: MPVFHTRTIESILEPVAQQISHLVIMHEEGEVDGKAIPDLTAPVSAVQAAVSNLVRVGKETVQTTEDQILKRDMPPAFIKVENACTKLVRAAQMLQADPYSVPARDYLIDGSRGILSGTSDLLLTFDEAEVRKIIRVCKGILEYLTVAEVVETMEDLVTYTKNLGPGMTKMAKMIDERQQELTHQEHRVMLVNSMNTVKELLPVLISAMKIFVTTKNTKSQGIEEALKNRNFTVEKMSAEINEIIRVLQLTSWDEDAWA

Kd [6]: 7 nM
B4: αT-catenin N1-N2 (aa1-259) (domain or fragment, M. musculus, UniProt Q65CL1 1-259, looked up)
chain: MSAETPITLNMDTQDLQIQTFTVEKLLEPLIIQVTTLVNCPQNPSNRKKGRSKRARVLLASVEEATWNLLDKGEMIAKEATVLKEELAAALQEVRKESKALKVSAERFTDDPCYLPKREAVVQAARALLAAVTRLLVLADMIDVMCLLQHVSSFQRTFESLKNVSNKSDLQRTYQKLGKELESLDYLAFKRQQDLKSPSQRDEIAGARATLKENSPLLHSICSACLEHSDVASLKASKDTVCEEIQNALDVISNASQGI
